Test results: article doi:10.1101/2024.01.24.577129 (2024)

Experiments:
Assay in all cases: SPR
[1] = biological target: D^d MHC class I monomer presenting […] (mouse | )
[2] = biological target: T1, K^d MHC class I monomer presenting VYLKTNVFL (mouse | )
T1 chain 1: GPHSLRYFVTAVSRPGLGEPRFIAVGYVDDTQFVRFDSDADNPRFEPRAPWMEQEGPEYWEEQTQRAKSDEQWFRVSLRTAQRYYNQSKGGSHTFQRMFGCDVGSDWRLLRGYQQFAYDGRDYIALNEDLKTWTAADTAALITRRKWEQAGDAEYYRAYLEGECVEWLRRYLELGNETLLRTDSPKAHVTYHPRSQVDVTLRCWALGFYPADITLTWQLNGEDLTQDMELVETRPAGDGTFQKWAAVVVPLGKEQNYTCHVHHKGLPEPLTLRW
T1 chain 2: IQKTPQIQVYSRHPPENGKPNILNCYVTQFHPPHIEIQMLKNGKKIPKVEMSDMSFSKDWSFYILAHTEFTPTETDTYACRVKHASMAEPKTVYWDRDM
T1 chain 3: VYLKTNVFL

[3] = biological target: T2, K^b MHC class I monomer presenting SIINFEKL (mouse | )
T2 chain 1: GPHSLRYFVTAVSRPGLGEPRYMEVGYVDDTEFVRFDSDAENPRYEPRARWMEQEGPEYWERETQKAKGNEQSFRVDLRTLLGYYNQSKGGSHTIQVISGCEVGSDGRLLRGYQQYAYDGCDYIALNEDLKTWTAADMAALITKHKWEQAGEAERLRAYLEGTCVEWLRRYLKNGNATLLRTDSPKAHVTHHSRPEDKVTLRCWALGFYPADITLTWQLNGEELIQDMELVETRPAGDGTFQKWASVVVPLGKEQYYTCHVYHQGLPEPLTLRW
T2 chain 2: T1 chain 2
T2 chain 3: SIINFEKL

B1: 34-1-2S antibody (antibody, V domains shown)
VH: EVQLQQSGAEFVRPGASVKLSCTASGFNLKDDYMFWVKQRPEQGLEWIGWIAPDNGDTEYASKFQGKATITADTSSNTAYVQLSSLTSEDTAVYYCTTWGYYSYVNYWGQGTTLTVSS
VL: DIQMTQSPSSLSASLGERVSLTCRASQDIGSNLNWLQQEPDGTIKRLIYATYSLDSGVPKRFSGSRSGSDYSLTISSLESEDFVDYYCLQYASSPYTFGGGTKLEIK
Kd [1]: 30 nM
Kd [2]: 9.1 nM
Kd [3]: 2490 nM
